In the supplement of paper PMC10567573 one finds protein stability index data, which are given here for 36 sequences.

This data set is described as follows: protein stability index of a GFP-peptide fusion (GPS, HEK-293T) (PSI 1-6); higher = more stable. The following applies: c terminus: a fixed tail appended.

± gives the standard deviation.
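Further: 24-mer peptide tiles fused after GFP, lentivirally expressed, FACS-sorted into six equal bins by GFP/DsRed ratio, decoded by Illumina sequencing, PSI is the read-weighted mean bin number.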

DENGRPYSPSQYALQYAGDGSVLL [NFE2L1]: the protein stability index runs as follows: (treatment: DMSO) 3.57 ± 0.39; (treatment: MLN4924 1 uM, 8 h) 3.6 ± 0.34.

In the case of DENLFTGEDLDELEEELNTLDLEE [ZC3H15], the protein stability index reads like this: (treatment: DMSO) 5.18 ± 0.75; (treatment: MLN4924 1 uM, 8 h) 5.44 ± 0.21.

Turning to DEQKEEEEEEGEEEELIRIFQEQQ [FAM9B], the protein stability index amounted to 5.51 ± 0.34 (treatment: DMSO) and 5.47 ± 0.29 (treatment: MLN4924 1 uM, 8 h).

As for DFFIVGCEVIFCVFIFYYVVEEIL [PKD2L1], the protein stability index (treatment: DMSO) amounted to 1.92 ± 0.47 and the protein stability index (treatment: MLN4924 1 uM, 8 h) was determined as 2 ± 0.3.

Take DFSSGGAAAAAAPAPPPPAGGATA [SNAP91]: the protein stability index (treatment: DMSO) was 5.39 ± 0.3 and the protein stability index (treatment: MLN4924 1 uM, 8 h) stood at 5.37 ± 0.15.

DGFFYFFHGTRQYKFDPKTKRILT [MMP1]: the protein stability index was 2.14 ± 0.48 (treatment: DMSO) and 2.28 ± 0.23 (treatment: MLN4924 1 uM, 8 h).

As to DGLLGDNQIMPKAGLLIIVLAIIA [MAGEA3], the protein stability index by setting is: (treatment: DMSO) 3.11 ± 0.91; (treatment: MLN4924 1 uM, 8 h) 2.46 ± 0.34.

With DGLRLLGARARGVAMLGVFLVSAV [SOAT2], the protein stability index turned out to be 2.56 ± 0.53 (treatment: DMSO) and 2.49 ± 0.38 (treatment: MLN4924 1 uM, 8 h).

As to DGQYLGVAFRGLKGKKLYPVVSAV [SPSB4], the protein stability index by setting is: (treatment: DMSO) 2.08 ± 0.38; (treatment: MLN4924 1 uM, 8 h) 2.51 ± 0.49.

Regarding DINLSVRKLLNRHNIVFGDYTWTE [TRIP13], the protein stability index was 2.28 ± 0.29 (treatment: DMSO) and 2.22 ± 0.4 (treatment: MLN4924 1 uM, 8 h).

Regarding DIRAKKIASIADVCESMKEQLLVL [HNF4A], the protein stability index was 2.5 ± 0.35 (treatment: DMSO) and 2.26 ± 0.22 (treatment: MLN4924 1 uM, 8 h).

As for DKNLTEREVFNEIYPVWTYSYLVL [SLC19A2], the protein stability index by setting is: (treatment: DMSO) 2.81 ± 0.64; (treatment: MLN4924 1 uM, 8 h) 2.65 ± 0.46.

Sequence DLENRCQSLTEDLEFRKSMYEEEI [LMNB1] showed a protein stability index (treatment: DMSO) of 4.91 ± 0.056 and a protein stability index (treatment: MLN4924 1 uM, 8 h) of 4.76 ± 0.13.

DLGASSLHVNGESLEMDSDEDDSE [EHMT1] gave a protein stability index (treatment: DMSO) of 5.52 ± 0.15 and a protein stability index (treatment: MLN4924 1 uM, 8 h) of 5.62 ± 0.14.

On to DLIKHQRIHTEEKPYKCQQCDKRF [ZNF75A], for which the protein stability index stood at 2.99 ± 0.23 (treatment: DMSO) and 3.31 ± 0.16 (treatment: MLN4924 1 uM, 8 h).

DLNGAQIKLREYEAALNSKDAALA [LMNB1]: the protein stability index by setting is: (treatment: DMSO) 3.5 ± 0.18; (treatment: MLN4924 1 uM, 8 h) 3.71 ± 0.39.

As to DLRVLVSNASEDTRRLRLAHVGME [SCARA5], the protein stability index was determined as 2.9 ± 0.17 (treatment: DMSO) and 3.15 ± 0.11 (treatment: MLN4924 1 uM, 8 h).

As for DLSGLPLQSSKNSYSFQNPSSFDP [RNF180], the protein stability index by setting is: (treatment: DMSO) 3.75 ± 0.065; (treatment: MLN4924 1 uM, 8 h) 3.78 ± 0.074.

For DLSVEERSFVEKHRWPSNMYLKQL [RHOBTB3], the protein stability index amounted to 3.01 ± 0.24 (treatment: DMSO) and 2.98 ± 0.18 (treatment: MLN4924 1 uM, 8 h).

On to DLTVGRAPTADDDDDDHDDHEDND [NOL4L], for which the protein stability index is, setting by setting: (treatment: DMSO) 5.56 ± 0.18; (treatment: MLN4924 1 uM, 8 h) 5.5 ± 0.15.

Take DNLLRSTQKLSHSTKPSGSPLEEK [MATN2]: the protein stability index by setting is: (treatment: DMSO) 5.31 ± 0.37; (treatment: MLN4924 1 uM, 8 h) 5.07 ± 0.37.

In the case of DNMYRLAHFSPFLYYQSQELPNGS [PDZK1], the protein stability index turned out to be 2.12 ± 0.22 (treatment: DMSO) and 2.33 ± 0.23 (treatment: MLN4924 1 uM, 8 h).

Take DNPANRSLVLPWSFPLEWAPQNLT [TOR1AIP2]: the protein stability index is, setting by setting: (treatment: DMSO) 2.87 ± 0.23; (treatment: MLN4924 1 uM, 8 h) 2.79 ± 0.17.

As to DPKKLLTQHFVQENYLEYRQVPGS [MAGEA3], the protein stability index reads like this: (treatment: DMSO) 3.62 ± 0.22; (treatment: MLN4924 1 uM, 8 h) 3.76 ± 0.13.

Turning to DREDSPERCSDSDEEKKARRGRSP [CLINT1], the protein stability index is, setting by setting: (treatment: DMSO) 5.59 ± 0.3; (treatment: MLN4924 1 uM, 8 h) 5.34 ± 0.25.

As for DREGPSSSKLVTKKAPQPAKPRLA [HDAC6], the protein stability index by setting is: (treatment: DMSO) 5.09 ± 0.3; (treatment: MLN4924 1 uM, 8 h) 5.06 ± 0.35.

Consider DRTSHRLHTANLGDSGFLVVRGGE [PPTC7], for which the protein stability index by setting is: (treatment: DMSO) 4.08 ± 0.21; (treatment: MLN4924 1 uM, 8 h) 4.11 ± 0.27.

DSASPVEDTSNDESSILGTDIDLQ [M1AP]: the protein stability index reads like this: (treatment: DMSO) 5.62 ± 0.2; (treatment: MLN4924 1 uM, 8 h) 5.62 ± 0.21.

Regarding DSEEDEKMEEDIKEEEEKDHNEAM [PCMTD1], the protein stability index runs as follows: (treatment: DMSO) 5.81 ± 0.082; (treatment: MLN4924 1 uM, 8 h) 5.64 ± 0.2.

Sequence DSEHEPVYRAELVGELNGYLRDSS [PWWP2B] yielded a protein stability index (treatment: DMSO) of 4.46 ± 0.14 and a protein stability index (treatment: MLN4924 1 uM, 8 h) of 4.45 ± 0.16.

For DSHYGTKGLKKVVHETPAASKTVF [BTBD1], the protein stability index (treatment: DMSO) stood at 4.05 ± 0.095 and the protein stability index (treatment: MLN4924 1 uM, 8 h) came to 4.14 ± 0.28.

Regarding DSKIAFLMQLQDIQYLTENIWASQ [IQUB], the protein stability index by setting is: (treatment: DMSO) 2.9 ± 0.64; (treatment: MLN4924 1 uM, 8 h) 2.46 ± 0.62.

DSNMPHFQTLQAIVSHFQKLFDVP [CEP70]: the protein stability index by setting is: (treatment: DMSO) 2.38 ± 0.1; (treatment: MLN4924 1 uM, 8 h) 2.47 ± 0.22.

Turning to DSSHERTESQLTPCIRNVTSPTRQ [BTBD10], the protein stability index reads like this: (treatment: DMSO) 5.06 ± 0.15; (treatment: MLN4924 1 uM, 8 h) 5.1 ± 0.12.

With DVESGQLLQSFHGHGADVLCLDLA [GNB5], the protein stability index turned out to be 3.69 ± 0.28 (treatment: DMSO) and 3.81 ± 0.31 (treatment: MLN4924 1 uM, 8 h).

In the case of DVIIEVNGVNVLDEPYEKVVDRIQ [PDZK1], the protein stability index is, setting by setting: (treatment: DMSO) 3.73 ± 0.32; (treatment: MLN4924 1 uM, 8 h) 3.81 ± 0.97.
